Measurements reported in publication PMC8621148, “Determination of the Protein-Protein Interactions within Acyl Carrier Protein (MmcB)-Dependent Modifications in the Biosynthesis of Mitomycin” (Molecules, 2021).

Legend:
MitF, reductase = target: T1, MitF, reductase (Streptomyces lavendulae NRRL 2564, UniProt Q9X5R6 1-257); experiment: SPR; Biacore 8K, 25 °C; MitB (5000 RU) or MitF (3000 RU) coupled to a CM5 chip in 10 mM NaAc pH 4.0; holo-MmcB flowed over (2.7-43.2 µM on MitB, 0.7-21.6 µM on MitF); details: both partners purified
T1 construct: MitF, reductase of the mitomycin C biosynthetic gene cluster, Streptomyces lavendulae NRRL 2564; source: E. coli BL21(DE3), pET30a (pJQK414), purified (Ni-NTA, FPLC); not shown: His6, N-terminal, kept
T1 sequence (looked up): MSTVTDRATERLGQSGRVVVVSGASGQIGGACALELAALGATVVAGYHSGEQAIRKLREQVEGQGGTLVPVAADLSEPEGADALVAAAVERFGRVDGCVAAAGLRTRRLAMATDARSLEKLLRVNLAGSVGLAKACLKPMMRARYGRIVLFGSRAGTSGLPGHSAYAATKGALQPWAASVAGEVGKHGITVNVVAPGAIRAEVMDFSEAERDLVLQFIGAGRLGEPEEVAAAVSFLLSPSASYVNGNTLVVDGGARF

[1] = target: MitB (intact, updated open reading frame), glycosyltransferase (Streptomyces lavendulae NRRL 2564) (UniProt Q9WW09); experiment: as above

B1: holo-MmcB (acyl carrier protein MmcB, tag-free) (natural protein, Streptomyces lavendulae NRRL 2564, UniProt Q9X5S0 1-93, looked up)
chain: METLTTDKIKDRLRKVLVDSLELSLDPSAVPDEGLVEKLGLDSINTIEFLIWVESEFGIEIADEDLSIKLIDSLDLLAGYVSERVNGVTAPAE
modifications: 4'-phosphopantetheine at Ser43 (holo-form)
notes: MmcB, acyl carrier protein of the mitomycin C biosynthetic gene cluster, Streptomyces lavendulae NRRL 2564; 93 amino acid residues; gene synthesised with codons optimised for E. coli; The methods name the holo form for both the pull-down and SPR; also called ACP; tag-free MmcB; not shown: His6, C-terminal, cleaved
stoichiometry N (MitF, reductase): 1 | Kd [1]: 578 nM | koff [1]: 0.113 s⁻¹ | kon [1]: 195000 M⁻¹ s⁻¹ | stoichiometry N [1]: 1
